Residue numbers refer to the chain shown, from its start.
B1: 178K 1B2 mAb: mouse monoclonal antibody raised against E1-KLH (56); IgG2b, κ; heavy chain SEQ ID NO 84, light chain SEQ ID NO 108 (antibody)
heavy: MNFGLSLIFLALILKGVQCEVQLVESGGDLVKPGGSLKLSCAASGFTFTNYVMSWVRQTPDKRLEWVATINSGGRYAYYPDSVKGRFTISRDNAKNTLYLQMSSLKSEDTAMYYCAGGNNLDYWGQGTTLTVSSAKTTPPSVYPLAPGCGDTTGSSVTLGCLVKGYFPESVTVTWNSGSLSSSVHTFPALLQSGLYTMSSSVTVPSSTWLSQTVTCSVAHPASSTTVDKKLEPSGPISTIKPCPPCKECHKCPAPNLEGGPSVFIFPPNIKDVLMISLTPKVTCVVVDVSEDDPDVQISWFVNNVEVHTAQTQTHREDYNSTIRVVSALPIQHQDWMSGKEFKCKVNNKDLPSPIERTISKIKGLVRAPQVYILPPPAEQLSRKDVSLTCLVVGFNPGDISVEWTSNGHTEENYKDTAPILDSDGSYFIYSKLNMKTSKWEKTDSFSCNVRHEGLKNNYLKKTISRSPGK
light: MRFSAQLLGLLVLWIPGSTADIVMTQAAFSNPVTLGTSASISCRSSKSLLQRNGITYLYWYLQKPGQSPQLLIYRLSNLASGVPDRFSSSGSGTDFTLRISRVEAEDVGVYYCGQDLELPYTFGGGTKLEIKRADAAPTVSIFPPSSEQLTSGGASVVCFLNNFYPKDINVKWKIDGSERQNGVLNSWTDQDSKDSTYSMSSTLTLTKDEYERHNSYTCEATHKTSTSPIVKSFNRNEC
B2: 178H 4B1 mAb: mouse monoclonal antibody raised against E1-KLH (56); IgG2b, κ; heavy chain SEQ ID NO 83, light chain SEQ ID NO 107 (antibody)
heavy: MNFGLSLIFLALILKGLQCEVQLVESGGDLVKPGGSLKLSCAASGFTFSRNVMSWVRQTPDKRLEWVATISSGGVHTYYLDSVKGRFTIFRDNAKNTLYLQMNSLQSEDTAMYYCAAGNALDYWGQGTSVTVSSAKTTPPSVYPLAPGCGDTTGSSVTLGCLVKGYFPESVTVTWNSGSLSSSVHTFPALLQSGLYTMSSSVTVPSSTWPSQTVTCSVAHPASSTTVDKKLEPSGPISTINPCPPCKECHKCPAPNLEGGPSVFIFPPNIKDVLMISLTPKVTCVVVDVSEDDPDVRISWFVNNVEVHTAQTQTHREDYNSTIRVVSALPIQHQDWMSGKEFKCKVNNKDLPSPIERTISKIKGLVRAPQVYILPPPAEQLSRKDVSLTCLVVGFNPGDISVEWTSNGHTEENYKDTAPVLDSDGSYFIYSKLDIKTSKWEKTDSFSCNVRHEGLKNYYLKKTISRSPGK
light: B1 light with V23M, A39G, Q51H, R52S, R75Q, L76M, T122S, G125S
B3: 178K 2B7 mAb: mouse monoclonal antibody raised against E1-KLH (56); IgG2b, κ; heavy chain SEQ ID NO 87, light chain SEQ ID NO 111 (antibody)
heavy: B1 heavy with K32R, A43S, T47I, T49S, Y76F, A77T, Y99F, S103N, S107P, M112I
light: B1 light with A28E, N53S, L76M, L117M
B4: 178K 4E11 mAb: mouse monoclonal antibody raised against E1-KLH (56); IgG2b, κ; heavy chain SEQ ID NO 89, light chain SEQ ID NO 113 (antibody)
heavy: B1 heavy with T49S, K62M, A77T, S103N, M112I
light: B1 light with L76M

Tested on: not listed separately
Experiment: Competitive ELISA of purified antibodies on E1-OVA (55), MDMA and MDA reactivity
Format: binding
Conditions: 10,000-0.1 ng/mL range of drug concentration
Protocol: (§1) Competitive ELISA was used to assess the presence of anti-Ecstasy-class antibodies in animal sera, hybridoma supernatants, and monoclonal antibody (mAb) samples as well as to estimate the level of antibody cross reactivity to amphetamine (Amph) and methamphetamine (mAmph). Antisera and antibody samples were used at the dilution giving a response of about OD=1 at 650 nm (OD650 nm) in an indirect ELISA. Hybridoma supernatants were diluted 1:2 in PBS. (±)-MDMA, (±)-MDA, (±)-amphetamine, and (±)-methamphetamine were used as inhibitors (Cerilliant Corporation, Round Rock, TX). Microtiter ELISA plates were coated and blocked as described above for indirect ELISA. The inhibitors were serially diluted in PBS. 25 μL of the diluted inhibitor was mixed with 25 μL of fixed appropriate antiserum or antibody sample dilution. The mixture was incubated over the E1-OVA (55) solid phase for 1 h. The plates were washed as described above and the bound antibodies were detected with anti-rabbit or anti-mouse IgG HRP-conjugates and TMB substrate as described above.
(§2) The anti-ecstasy class mAbs were purified from clarified and filtered hybridoma culture supernatants on a recombinant Protein A Sepharose Fast Flow (GE Life Sciences, Boston USA), dialyzed against PBS containing 0.02% sodium azide and stored at 4° C. The purified mAbs were tested for MDA and MDMA reactivity as well as amphetamine (Amph) and methamphetamine (mAmph) cross reactivity in a competitive assay.

In the case of B1, the “relative sensitivity to MDMA and MDA in competitive ELISA” value (“relative sensitivity to MDMA and MDA” below) is reported as “bind MDMA stronger than MDA”.
In the case of B2, the “relative sensitivity to MDMA and MDA” value is reported as “bind MDMA stronger than MDA”.
For B3, the “relative sensitivity to MDMA and MDA” value was “bind MDMA stronger than MDA”.

Tested on: not listed separately
Experiment: Competitive ELISA of purified antibodies on E1-OVA (55), amphetamine and methamphetamine cross reactivity
Format: binding
Conditions: not given
Protocol: as §1, §2

With B1 the “cross reactivity in the presence of 1,000 ng/ml of Amph or mAmph” value (from here on “cross reactivity in the presence”) was “do not show any significant cross reactivity”.
In the case of B4, the “cross reactivity in the presence” value is reported as “do not show any significant cross reactivity”.
In the case of B3, the “cross reactivity in the presence” value is reported as “do not show any significant cross reactivity”.

Tested on: not listed separately
Experiment: Prototype EMIT ecstasy assay, cross-reactivity with amphetamine
Format: biochemical
Conditions: conjugate Compound 58; negative urine pool

B4 and B2 cannot be ordered by “Concentrations (μg/mL) of Structurally Related Compounds Equivalent to 500 ng/mL MDMA Cutoffs, (+/−) Amph” value: 40 to 45 µg/mL for the first, 40 µg/mL for the second.

With B3 the “Concentrations (μg/mL) of Structurally Related Compounds Equivalent to 500 ng/mL MDMA Cutoffs, (+/−) Amph” value was 40 to 45 µg/mL.

Tested on: E1-OVA (55)
Experiment: ELISA binding of hybridoma supernatant to E1-OVA (55) coated plates, without inhibitor
Conditions: hybridoma supernatant mixed with PBS alone
Protocol: All ELISA steps were performed at rt. Wells of a Nunc Maxi-Sorp™ flat-bottom ELISA plates (ThermoFisher Scientific, Waltham, MA) were coated with 50 μL E1-OVA (55), E2-OVA (65), and E3-OVA (72) at a concentration of 1 μg/mL in PBS for 1 h. The plates were flicked dried and remaining binding sites were blocked with 200 μL per well of blocking solution (0.5% casein, 0.05% (v/v) Tween 20 in PBS) for one hour. Plates were washed six times with MilliQ water containing 0.05% (v/v) Tween 20 on Biotek 405 LS plate washer equipped with microplate Biostacker 3 (Biotek, Winooski, VT). 50 μL of serially diluted antibody samples (serial dilutions of serum, hybridoma supernatant, or monoclonal antibodies in PBS) were added to each well and incubated for one hour. Unbound antibodies were removed by washing as described above, and 50 μL of secondary goat anti-rabbit IgG HRP or goat anti-mouse IgG (Fc)-HRP conjugate (ThermoFisher Scientific, USA), diluted 1:3,000 in the blocking solution was added to each well for detection bound rabbit or mouse antibody, respectively. Plates were incubated for one hour, washed and 100 μL of TMB substrate (Moss, Pasadena, MD) was added for 15 min to determine bound peroxidase. Optical density (OD) of the samples at 650 nm was measured using an ELISA plate reader (Molecular Devices LLC., San Jose, CA). The titer of each serum sample was designated as the maximum dilution that yielded at least twice the absorbance of the same dilution of the nonimmune control serum.
(§3) The supernatants were screened in a competitive ELISA for the presence of anti-ecstasy compound monoclonal antibodies (mAbs) as follows. 25 μL of the hybridoma supernatant was mixed with equal volume of PBS alone or containing 20 μg/mL inhibitor (MDA or MDMA) were incubated for 1 h in the wells of E1-OVA (55) coated ELISA plates. The plates were washed and the presence of bound mAbs were detected using goat anti-mouse IgG (Fc)-HRP conjugate and TMB substrate as described above. The level of inhibition of mAb/E1-OVA (55) binding in the presence of the inhibitor was estimated using a Percent (%) Inhibition calculated by the below formula:
[formula] • where “OD650 nm w/o Inhibitor” is the binding response of the antibody sample diluted in PBS alone (with no inhibitor), and the “OD650 nm with Inhibitor” is the binding response of the same antibody sample in the presence of 10 μg/mL of inhibitor (i.e., MDA or MDMA). […]

Compared with B1, B4 is lower in “E1-OVA (55) Binding, OD650 nm w/o inhib” value: 4.000 OD650 nm for the first, 1.930 OD650 nm for the second.

First: B2
Second: B3
The “E1-OVA (55) Binding, OD650 nm w/o inhib” value of the first is lower: 3.164 OD650 nm for the first, 3.497 OD650 nm for the second.

Tested on: not listed separately
Experiment: Competitive ELISA screening of hybridoma supernatants on E1-OVA (55), inhibitor MDA
Format: binding
Conditions: hybridoma supernatant in the presence of 10 μg/mL MDA
Protocol: as §1, §3
(§4) [formula] • where “OD650 nm w/o Inhibitor” is the binding response of the antibody sample diluted in PBS alone (with no inhibitor), and the “OD650 nm with Inhibitor” is the binding response of the same antibody sample in the presence of 10 μg/mL of inhibitor (i.e., MDA or MDMA).

Going from B1 to B4, the “E1-OVA (55) Binding, OD650 nm +MDA” value falls from 0.730 OD650 nm to 0.091 OD650 nm.

Compared with B2, B3 is higher in “E1-OVA (55) Binding, OD650 nm +MDA” value: 0.105 OD650 nm for the first, 0.429 OD650 nm for the second.

Same assay, conditions: inhibition of mAb/E1-OVA (55) binding

Going from B1 to B4, the “% Inhibition by 10 μg/mL of MDA” value rises from 82% to 95%.

First: B2
Second: B3
The “% Inhibition by 10 μg/mL of MDA” value of the first is higher: 97% for the first, 88% for the second.

Tested on: not listed separately
Experiment: Prototype EMIT ecstasy assay, cross-reactivity with methamphetamine
Format: biochemical
Conditions: conjugate Compound 58; negative urine pool

First: B4
Second: B2
The “Concentrations (μg/mL) of Structurally Related Compounds Equivalent to 500 ng/mL MDMA Cutoffs, (+/−) mAmph” value of the first is higher: 50 to 60 µg/mL for the first, 40 to 50 µg/mL for the second.

With B3 the “Concentrations (μg/mL) of Structurally Related Compounds Equivalent to 500 ng/mL MDMA Cutoffs, (+/−) mAmph” value was 50 to 60 µg/mL.

Tested on: not listed separately
Experiment: Competitive ELISA screening of hybridoma supernatants on E1-OVA (55), inhibitor MDMA
Format: binding
Conditions: hybridoma supernatant in the presence of 10 μg/mL MDMA
Protocol: as §1, §3, §4

Going from B1 to B4, the “E1-OVA (55) Binding, OD650 nm +MDMA” value falls from 0.667 OD650 nm to 0.088 OD650 nm.

Going from B2 to B3, the “E1-OVA (55) Binding, OD650 nm +MDMA” value rises from 0.093 OD650 nm to 0.374 OD650 nm.

Same assay, conditions: inhibition of mAb/E1-OVA (55) binding

Compared with B1, B4 is higher in “% Inhibition by 10 μg/mL of MDMA” value: 83% for the first, 95% for the second.

Compared with B2, B3 is lower in “% Inhibition by 10 μg/mL of MDMA” value: 98% for the first, 89% for the second.
